Measured values published in paper PMC6862464, “Structural Insights into AQP2 Targeting to Multivesicular Bodies” (International Journal of Molecular Sciences, 2019).
Changes are numbered by the printed parent chain.

T1: human aquaporin 2 (AQP2), wild-type (human, UniProt P41181 1-271, cysteine residues labeled with C5 maleimide Alexa 488; dephosphorylated with alkaline phosphatase before labeling)
T1 construct: concentrations and molar ratios seem to count monomers; His-tag is called uncleavable; also called WT; labeled AQP2; source: Pichia pastoris, purified (HisTrap, SEC) in OGNG; not shown: His-tag, N-terminal, kept
T1 sequence (looked up): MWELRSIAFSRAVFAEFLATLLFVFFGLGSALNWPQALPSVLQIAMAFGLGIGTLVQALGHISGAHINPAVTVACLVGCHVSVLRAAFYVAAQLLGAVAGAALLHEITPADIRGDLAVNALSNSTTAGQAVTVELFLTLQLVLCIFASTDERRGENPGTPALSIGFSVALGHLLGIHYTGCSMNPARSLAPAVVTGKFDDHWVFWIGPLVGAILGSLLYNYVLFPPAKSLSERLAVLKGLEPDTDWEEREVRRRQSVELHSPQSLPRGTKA

B1: full-length human lysosomal trafficking regulator-interacting protein 5 (FL-LIP5) (natural protein)
chain: MAALAPLPPLPAQFKSIQHHLRTAQEHDKRDPVVAYYCRLYAMQTGMKIDSKTPECRKFLSKLMDQLEALKKQLGDNEAITQEIVGCAHLENYALKMFLYADNEDRAGRFHKNMIKSFYTASLLIDVITVFGELTDENVKHRKYARWKATYIHNCLKNGETPQAGPVGIEEDNDIEENEDAGAASLPTQPTQPSSSSTYDPSNMPSGNYTGIQIPPGAHAPANTPAEVPHSTGVASNTIQPTPQTIPAIDPALFNTISQGDVRLTPEDFARAQKYCKYAGSALQYEDVSTAVQNLQKALKLLTTGREDYDIPTT
notes: spacer between the last LIP5 residue and the TEV protease site that precedes the His tag; same tag, TEV site and linker as ND-LIP5; No TEV cleavage is described; also called full-length LIP5; wild-type LIP5; source: E. coli BL21*(DE3), purified (HisTrap, SEC)
B2: human AQP2 E241A (natural protein, UniProt P41181 1-271, looked up)
chain: T1 sequence (looked up) with E241A
modifications: cysteine residues labeled with C5 maleimide Alexa 488; dephosphorylated with alkaline phosphatase before labeling
notes: Mutant of m1; source: Pichia pastoris, purified (HisTrap, SEC) in OGNG; not shown: His-tag, N-terminal, kept
B3: human AQP2 K238A (natural protein, UniProt P41181 1-271, looked up)
chain: T1 sequence (looked up) with K238A
modifications: cysteine residues labeled with C5 maleimide Alexa 488; dephosphorylated with alkaline phosphatase before labeling
notes: as for B2
B4: human AQP2 L230A (natural protein, UniProt P41181 1-271, looked up)
chain: T1 sequence (looked up) with L230A
modifications: cysteine residues labeled with C5 maleimide Alexa 488; dephosphorylated with alkaline phosphatase before labeling
notes: as for B2
B5: human AQP2 L234A (natural protein, UniProt P41181 1-271, looked up)
chain: T1 sequence (looked up) with L234A
modifications: cysteine residues labeled with C5 maleimide Alexa 488; dephosphorylated with alkaline phosphatase before labeling
notes: as for B2
B6: human AQP2 L237A (natural protein, UniProt P41181 1-271, looked up)
chain: T1 sequence (looked up) with L237A
modifications: cysteine residues labeled with C5 maleimide Alexa 488; dephosphorylated with alkaline phosphatase before labeling
notes: as for B2
B7: human AQP2 R233A (natural protein, UniProt P41181 1-271, looked up)
chain: T1 sequence (looked up) with R233A
modifications: cysteine residues labeled with C5 maleimide Alexa 488; dephosphorylated with alkaline phosphatase before labeling
notes: as for B2
B8: N-terminal domain of human LIP5 (ND-LIP5, residues 1-162) (domain or fragment)
chain: MAALAPLPPLPAQFKSIQHHLRTAQEHDKRDPVVAYYCRLYAMQTGMKIDSKTPECRKFLSKLMDQLEALKKQLGDNEAITQEIVGCAHLENYALKMFLYADNEDRAGRFHKNMIKSFYTASLLIDVITVFGELTDENVKHRKYARWKATYIHNCLKNGETPDYDIPTT
notes: LIP5, human, N-terminal domain, residues 1-162; spacer between the last ND-LIP5 residue and the TEV protease site that precedes the His tag; TEV site between spacer and His tag; no cleavage described; source: E. coli BL21*(DE3), purified (HisTrap, SEC)

Assays:
Details in all cases: both partners purified
[1] = target: T1, human aquaporin 2 (AQP2), wild-type; test: other fluorescence titration; stoichiometry: labeled AQP2 kept 20 times above the Kd, LIP5 added to a molar LIP5:AQP2 ratio between 0 and 2; saturation point from the intercept of two linear fits; same buffers
[2] = target: B1; test: other fluorescence titration; Alexa 488-labeled, dephosphorylated AQP2 (around 1 uM) in the cuvette, titrated with unlabeled LIP5; total fluorescence; 20 mM Tris-HCl pH 8, 300 mM NaCl, 0.2% OGNG; triplicate titrations
[3] = target: T1, human aquaporin 2 (AQP2), wild-type; test: as above

| Binder | stoichiometry N [1] | Kd [2] [nM] | Kd [3] [nM] |
| --- | --- | --- | --- |
| B1 | 0.42 molar ratio FL-LIP5:AQP2 | – | – |
| B2 | – | 700 | – |
| B3 | – | 552 | – |
| B4 | – | 156 | – |
| B5 | – | 126 | – |
| B6 | – | 535 | – |
| B7 | – | 487 | – |
| B8 | 0.29 molar ratio ND-LIP5:AQP2 | – | 64.4 |
